Experimental data published in article PMC12043514 (Nature, 2024).

How the values were obtained:
cryo-EM structure = target: the molecule itself; assay: cryo-EM structure
[1] = target: SV40 large tumour antigen (LTag) helicase hexamer (Simian virus 40, UniProt P03070 1-708); assay: cryo-EM

Binder	stoichiometry N (cryo-EM structure)	binding result [1]
simian virus 40 large tumour antigen (LTag) helicase (enzyme) MDKVLNREESLQLMDLLGLERSAWGNIPLMRKAYLKKCKEFHPDKGGDEEKMKKMNTLYKKMEDGVKYAHQPDFGGFWDATEIPTYGTDEWEQWWNAFNEENLFCSEEMPSSDDEATADSQHSTPPKKKRKVEDPKDFPSELLSFLSHAVFSNRTLACFAIYTTKEKAALLYKKIMEKYSVTFISRHNSYNHNILFFLTPHRHRVSAINNYAQKLCTFSFLICKGVNKEYLMYSALTRDPFSVIEESLPGGLKEHDFNPEEAEETKQVSWKLVTEYAMETKCDDVLLLLGMYLEFQYSFEMCLKCIKKEQPSHYKYHEKHYANAAIFADSKNQKTICQQAVDTVLAKKRVDSLQLTREQMLTNRFNDLLDRMDIMFGSTGSADIEEWMAGVAWLHCLLPKMDSVVYDFLKCMVYNIPKKRYWLFKGPIDSGKTTLAAALLELCGGKALNVNLPLDRLNFELGVAIDQFLVVFEDVKGTGGESRDLPSGQGINNLDNLRDYLDGSVKVNLEKKHLNKRTQIFPPGIVTMNEYSVPKTLQARFVKQIDFRPKDYLKHCLERSEFLLEKRIIQSGIALLLMLIWYRPVAEFAQSIQSRIVEWKERLDKEFSLSVYQKMKFNVAMGIGVLDWLRNSDDDDEDSQENADKNEDGGEKNMEDSGHETGIDSQSQGSFQAPQSSQSVHDHNQPYHICRGFTCFKKPPTPPPEPET	6	–
gap DNA substrate without free 3' ssDNA tail (mixed, 3' terminal dideoxy-C ([23ddC]) on strand 1) DNA 1: AGCTATGACCATGATTACGAATTGC DNA 2: TTTTTCGGAGTCGTTTCGACTCCGATTTTTTTTTTTTTTTTTTTTTTTTTTTTTTTTTTTTTTTTTTTTTGCAATTCGTAATCATGGTCATAGCT	–	no binding
